The record followed here is patent US20030145347A1.

Holding throughout (assay): cell-based or functional assay
The target in assay [1] is soybean thioredoxin as labelled in the 4th table (with or without S-tag not told) (soybean).
Assay [2] concerns the target rice thioredoxin with S-tag (recombinant, expressed in E. coli from pNOV4113) (rice).
Assay [3] deals with wheat thioredoxin with S-tag (recombinant, expressed in E. coli from pNOV4114) (wheat (T. aestivium [sic])).

Sequence of E. coli thioredoxin reductase (T-7915, Sigma, St. Louis, Mo.) (P0A9P4 2-321 limits assumed): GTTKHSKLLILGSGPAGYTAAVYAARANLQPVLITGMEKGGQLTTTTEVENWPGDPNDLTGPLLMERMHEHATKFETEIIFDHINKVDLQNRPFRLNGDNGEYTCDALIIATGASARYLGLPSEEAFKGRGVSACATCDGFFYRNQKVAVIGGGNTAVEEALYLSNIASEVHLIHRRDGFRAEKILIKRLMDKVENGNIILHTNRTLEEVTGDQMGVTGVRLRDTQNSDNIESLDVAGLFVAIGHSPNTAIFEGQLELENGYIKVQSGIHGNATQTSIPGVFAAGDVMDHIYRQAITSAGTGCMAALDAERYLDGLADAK

In assay [1], “E. coli thioredoxin reductase (T-7915, Sigma, St. Louis, Mo.) (from UniProt P0A9P4 2-321) (enzyme)” showed a change in A412 over 4 min, NADPH thioredoxin reductase DTNB assay; 30 ul (about 6 ug) soybean thioredoxin, 2.3 ug E. coli reductase of 0.2 A412 and a change in A412 over 4 min, NADPH thioredoxin reductase DTNB assay; 30 ul (about 12 ug) soybean thioredoxin, 2.3 ug E. coli reductase of 0.333 A412. Moreover, the change in A412 over 4 min, NADPH thioredoxin reductase DTNB assay; 30 ul (about 15 ug) rice thioredoxin, 2.3 ug E. coli reductase in assay [2] was found to be 0.3 A412. For the same substance, the change in A412 over 4 min, NADPH thioredoxin reductase DTNB assay; 30 ul (about 0.6 ug) wheat thioredoxin, 2.3 ug E. coli reductase in assay [3] stood at 0.3 A412.
For “Arabidopsis NADPH thioredoxin reductase without S-tag (recombinant, expressed in E. coli from pNOV4115) (from UniProt Q39243 43-375) (enzyme)”, the change in A412 over 4 min, NADPH thioredoxin reductase DTNB assay; 30 ul (about 12 ug) soybean thioredoxin, 1.5 ul (about 0.5 ug) Arabidopsis reductase in assay [1] was 0.42 A412. In addition, the change in A412 over 4 min, NADPH thioredoxin reductase DTNB assay; 30 ul (about 15 ug) rice thioredoxin, 1.5 ul (about 0.5 ug) Arabidopsis reductase in assay [2] is 0.66 A412. For the same substance, in assay [3], the change in A412 over 4 min, NADPH thioredoxin reductase DTNB assay; 30 ul (about 0.6 ug) wheat thioredoxin, 1.5 ul (0.5 ug) Arabidopsis reductase was 0.08 A412 and the change in A412 over 4 min, NADPH thioredoxin reductase DTNB assay; 30 ul (about 1.2 ug) wheat thioredoxin, 1.5 ul (0.5 ug) Arabidopsis reductase turned out to be 0.08 A412.
